{"source": "paper PMC10986557", "about": "“Inhibition of SARS-CoV-2 replication by a ssDNA aptamer targeting the nucleocapsid protein”", "binders": {"B1": {"name": "N-Apt17 (ssDNA)", "DNA": "GCTGGATGTTCATGCTGGCAAAAGGTGTCACTCCATTCCTTAGGGGCACCGGAAGCATCTCTTTACTTTGACACATCCAGC"}}, "target": "Nucleocapsid (N) protein (SARS-CoV-2 original strain, UniProt P0DTC9 1-419)", "experiment": "flow cytometry (bead-immobilized protein); 1x SB", "settings": "protein: recombinant; tags: His6 (pET28a); chain copies: 2"}
{"binder": "B1", "values": [{"measurement": "binding result", "result": "binds"}]}
